In article PMC9633773, “Discovering cell-active BCL6 inhibitors: effectively combining biochemical HTS with multiple biophysical techniques, X-ray crystallography and cell-based assays” (Scientific Reports, 2022) one finds % inhibition data, which are given here for one substance.

The target in the experiment is BCL6 BTB domain (BCL6 5-129, tag removed by HRV-3C protease) (human) (UniProt P41182). The experiment can be described thus: fluorescence polarisation; competition: 10 nM BCOR-AF633, 3 µM BCL6 BTB, unlabelled peptide varied; 20 mM Hepes/NaOH pH 8.0, 150 mM NaCl, 0.5 mM TCEP, 0.05% Tween 20, 1-2% DMSO; 2 h at room temperature.

For the substance WVIP tetrapeptide (Ac-WVIP-NH2), the % inhibition at 980 µM worked out at 16%.
